# Experiments:
# Assay in all cases: Kinetic constants of AMC substrate hydrolysis by hK2
# Format in all cases: biochemical, human
# Settings in all cases: other: 50 mM Tris pH 7.5, 0.1 M NaCl, 0.2% BSA, 37° C., Lineweaver-Burk
# [1] = system: T1, Cc1cc(=O)oc2cc(NC(=O)[C@H](CCCNC(=N)N)NC(=O)[C@@H]3CCCN3C(=O)[C@@H](NC(=O)OC(C)(C)C)C(C)C)ccc12
# T1 construct: made in house
# Method: (§1) The measurements were done with Fluoroscan II (Labsystems, Helsinki, Finland) using a 355 nm excitation filter and a 460 nm emission filter. The fluorescence of 7-amino-4-methylcoumarin (AMC) (Sigma, St. Louis, Mo., USA) was determined to be 700 FIU/nmol and this value was used in the calculations of the rate of product formation. Unless otherwise indicated all final analyses were performed in 200 μl of the buffer 50 mM Tris pH 7.5, 0.1 M NaCl, and 0.2% BSA at 37° C. using 1.6 pmol hK2. BSA was added to the reaction mixture in order to minimize adsorption of the enzyme to the walls of the microtiter wells. The amount of hK2 was quantified by a commercial PSA immunoassay (Prostatus, Wallac, Turku, Finland) with the Mabs H1 17 and H50 which recognize PSA and hK2 equally well (Lovgren et al., Biochem. Biophys. Res. Co., 213, 888-895 (1995)). Under the conditions described, 1.6 pmol of the hK2 preparation cleaved 50 pmol/min of the 100 μM substrate Pro-Phe-Arg-AMC (SEQ ID NO: 55). During the 20 minute measurement time the consumption of the substrates is <7% of their total amount and was not considered to affect the reaction rate. Initial analysis of the substrates were performed with 3.2 pmol hK2 at a substrate concentration of 250 μM. Km value for the substrates cleaved by hK2 at these conditions were determined using at least four substrate concentrations ranging from 0.2×Km to 5×Km. The Km and kcat values were calculated from Lineweaver-Burk plots.
# (§2) Substrates ending in either arginine or lysine were tested. […] However, no hydrolysis of Arg-Gln-Arg-Arg-AMC (SEQ ID NO: 63) was detected. […] As with the semenogelins, hK2 also here cleaves substrates with Arg at position P1 and preferentially a large residue or another Arg at position P2. None of the substrates with lysine in the C-terminal position were cleaved.
# (§3) The activity listed in Table 1 is hydrolytic activity of hK2 with 100 μM substrate in relation to the hydrolytic activity of hK2 with 100 μM of the tissue kallikrein substrate H-Pro-Phe-Arg-AMC (SEQ ID NO: 55). The entry “NR” means that no reaction was detected.
# [2] = system: T2, Cc1cc(=O)oc2cc(NC(=O)[C@H](CCCNC(=N)N)NC(=O)[C@H](CC(C)C)NC(=O)[C@H](CC(C)C)NC(=O)OCc3ccccc3)ccc12
# T2 construct: made in house
# Method: as §1, §2, §3
# [3] = system: T3, Cc1cc(=O)oc2cc(NC(=O)[C@H](CCCNC(=N)N)NC(=O)[C@H](CCCNC(=N)N)NC(=O)[C@H](C)NC(=O)OCc3ccccc3)ccc12
# T3 construct: made in house
# Method: as §1, §2, §3
# [4] = system: T4, Cc1cc(=O)oc2cc(NC(=O)[C@H](CCCNC(=N)N)NC(=O)[C@H](Cc3ccccc3)NC(=O)[C@@H]3CCCN3)ccc12
# T4 construct: made in house
# Method: as §1, §2, §3
substance,measurement,setting,value
recombinant hK2 (Homo sapiens),Km,[1],48 µM
same,kcat,[1],0.0267 s⁻¹
same,kcat/Km,[1],567 M⁻¹ s⁻¹
same,Km,[2],71 µM
same,kcat,[2],0.04 s⁻¹
same,kcat/Km,[2],567 M⁻¹ s⁻¹
same,Km,[3],20 µM
same,kcat,[3],0.12 s⁻¹
same,kcat/Km,[3],6000 M⁻¹ s⁻¹
same,Km,[4],40 µM
same,kcat,[4],0.917 s⁻¹
same,kcat/Km,[4],22900 M⁻¹ s⁻¹

# From patent US8450280B2, “Activation of peptide prodrugs by hK2” (GenbSpera, Inc., priority 1999, dated 2013)
